Patent publication US9540654B2, “Synthetic brassica-derived chloroplast transit peptides” (Dow AgroSciences LLC, priority 2012, dated 2017)

What was measured:
[1] = tested on: Zea mays hybrid 4XP811/B104; assay: Glyphosate tolerance of dgt-28 corn under field conditions; format: in vivo; conditions: corn under field conditions through the reproductive growth stages
From the text: Single copy T1 events were sent to a field location to create both hybrid hemizygous and inbred homozygous seed for additional characterization. Hybrid seeds were created by crossing T1 events in the maize transformation line B104 to the inbred line 4XP811 generating hybrid populations segregating 1:1 (hemizygous:null) for the event. The resulting seeds were shipped to 2 separate locations. A total of five single copy events per construct were planted at each location in a randomized complete block design in triplicate. The fields were designed for glyphosate applications to occur at the V4 growth stage and a separate grouping of plants to be applied at the V8 growth stage. The 4XP811/B104 conventional hybrid was used as a negative control.
Experimental rows were treated with 184 g ae/ha ASSURE II™ (106 g ai/L quizalofop-methyl) to eliminate null segregants. All experimental entries segregated 1:1 (sensitive:resistant) (p=0.05) with respect to the ASSURE II™ application. Selected resistant plants were sampled from each event for quantification of the DGT-28 protein by standard ELISA.
Quizalofop-methyl resistant plants were treated with the commercial herbicide DURANGO DMA™ (480 g ae/L glyphosate) with the addition of 2.5% w/v ammonium-sulfate at either the V4 or V8 growth stages. […]

rice = assay: Postemergence glyphosate tolerance of dgt-28 rice (T0, T1); format: in vivo, Oryza sativa; conditions: following 560 g ae/ha glyphosate used for selection
Experimental: Transplanted rice transformants produced via Agrobacterium transformation were transplanted into media and acclimated to greenhouse conditions. […] Selected T0 events from construct pDAB110828 were treated with 2240 g ae/ha DURANGO DMA™ as previously described and assessed 7 and 14 days after treatment. […] All PCR positive plants were allowed to produce T1 seed for further characterization.
(§1) T1 resistant plants from each event used in the progeny testing were given unique identifiers and sampled for zygosity analyses of the dgt-28 gene. Zygosity data were used to assign 2 hemizygous and 2 homozygous replicates to each rate of glyphosate applied allowing for a total of 4 replicates per treatment. These plants were compared against wildtype kitaake rice. All plants were sprayed with a track sprayer set at 187 L/ha. The plants were sprayed from a range of 560-2240 g ae/ha DURANGO DMA™. All applications were formulated in water with the addition of 2% w/v ammonium sulfate (AMS). Plants were evaluated at 7 and 14 days after treatment. Plants were assigned an injury rating with respect to overall visual stunting, chlorosis, and necrosis. The T1 generation is segregating, so some variable response is expected due to difference in zygosity.

Zea mays B104 = assay: Post-emergence glyphosate tolerance of dgt-28 T0 corn (greenhouse); format: in vivo; conditions: T0 dgt-28 corn plants
Experimental: Zea mays dgt-28 transformation events (T0) were allowed to acclimate in the greenhouse and were grown until plants had transitioned from tissue culture to greenhouse growing conditions (i.e., 2-4 new, normal looking leaves had emerged from the whorl). Plants were grown at 27° C. under 16 hour light:8 hour dark conditions in the greenhouse. The plants were then treated with commercial formulations of DURANGO DMA™ (containing the herbicide glyphosate) with the addition of 2% w/v ammonium-sulfate. Herbicide applications were made with a track sprayer at a spray volume of 187 L/ha, 50-cm spray height. T0 plants were sprayed with a range of glyphosate from 280-4480 g ae/ha glyphosate, which is capable of significant injury to untransformed corn lines. A lethal dose is defined as the rate that causes >95% injury to the B104 inbred.
T0 events of dgt-28 linked with TraP4, TraP5, TraP8 and TraP23 were generated by Agrobacterium transformation and were allowed to acclimate under controlled growth chamber conditions until 2-4 new, normal looking leaves had emerged from the whorl. Plants were assigned individual identification numbers and sampled for copy number analyses of both dgt-28 and aad-1. Based on copy number analyses, plants were selected for protein expression analyses. Plants were transplanted into larger pots with new growing media and grown at 27° C. under 16 hour light:8 hour dark conditions in the greenhouse. Remaining plants that were not sampled for protein expression were then treated with commercial formulations of DURANGO DMA™ (glyphosate) with the addition of 2% w/v ammonium-sulfate. Treatments were distributed so that each grouping of plants contained T0 events of varying copy number. Herbicide applications were made with a track sprayer at a spray volume of 187 L/ha, 50-cm spray height. T0 plants were sprayed with a range of glyphosate from 280-4480 g ae/ha glyphosate capable of significant injury to untransformed corn lines. A lethal dose is defined as the rate that causes >95% injury to the B104 inbred. B104 was the genetic background of the transformants.

[2] = tested on: tobacco (cv. Petit Havana); assay: Postemergence glyphosate tolerance of dgt-28 tobacco (T1, T2); format: in vivo; conditions: tobacco through two generations
From the text: as §1, with “Petite havana tobacco.” for “kitaake rice.”, “560-4480” for “560-2240”
Rates of DURANGO DMA™ ranging from 420-3360 g ae/ha glyphosate were applied to 2-3 leaf tobacco as previously described.

Arabidopsis = assay: dgt-28 as a selectable marker with glyphosate selection; format: in vivo, Arabidopsis thaliana; conditions: 26.25-1680 g ae/ha glyphosate applied 7 and 11 DAP
Experimental: The use of dgt-28 as a selectable marker for glyphosate selection agent is tested with the Arabidopsis transformed plants described above. Approximately 50 T4 generation Arabidopsis seed (homozygous for dgt-28) are spiked into approximately 5,000 wildtype (sensitive to glyphosate) seed. The seeds are germinated and plantlets are sprayed with a selecting dose of glyphosate. Several treatments of glyphosate are compared; each tray of plants receives either one or two application timings of glyphosate in one of the following treatment schemes: 7 DAP (days after planting), 11 DAP, or 7 followed by 11 DAP. Since all plants also contain a glufosinate resistance gene in the same transformation vector, dgt-28 containing plants selected with glyphosate can be directly compared to DSM-2 or pat containing plants selected with glufosinate.
Glyphosate treatments are applied with a DeVilbiss™ spray tip as previously described. Transgenic plants containing dgt-28 are identified as “resistant” or “sensitive” 17 DAP. […] Sensitive and resistant plants are counted and the number of glyphosate tolerant plants is found to correlate with the original number of transgenic seed containing the dgt-28 transgene which are planted.

B1: DGT-28: EPSP synthase (GENBANK ZP_06917240.1) from Streptomyces sviceus ATCC29083; glyphosate tolerance gene and protein (protein)
chain: MRGMPALSLPGSKSITARALFLAAAADGVTTLVRPLRSDDTEGFAEGLVRLGYRVGRTPDTWQVDGRPQGPAVAEADVYCRDGATTARFLPTLAAAGHGTYRFDASPQMRRRPLLPLSRALRDLGVDLRHEEAEGHHPLTVRAAGVEGGEVTLDAGQSSQYLTALLLLGPLTRQGLRIRVTDLVSAPYVEITLAMMRAFGVEVAREGDVFVVPPGGYRATTYAIEPDASTASYFFAAAALTPGAEVTVPGLGTGALQGDLGFVDVLRRMGAEVSVGADATTVRGTGELRGLTANMRDISDTMPTLAAIAPFASAPVRIEDVANTRVKECDRLEACAENLRRLGVRVATGPDWIEIHPGPATGAQVTSYGDHRIVMSFAVTGLRVPGISFDDPGCVRKTFPGFHEAFAELRRGIGS
[1]
  glyphosate rate up to which robust tolerance was shown: up to 4480 g ae/ha
rice
  glyphosate rate up to which tolerance was shown: up to 2240 g ae/ha
Zea mays B104
  glyphosate rate up to which tolerance was achieved: up to 4480 g ae/ha
[2]
  glyphosate rate up to which robust tolerance was shown: up to 3360 g ae/ha
Arabidopsis
  selection for transgenic Arabidopsis plants with glyphosate: effective selection
